Data reported in patent US20200291135A1 (INSPIRNA, published 2020).

T1: human MERTK expressed on cells (SKMEL5 melanoma cells; in vitro differentiated M2 macrophages) (human, UniProt Q12866 21-999)
T1 construct: Endogenous MERTK of human cells; also called surface MERTK
T1 sequence: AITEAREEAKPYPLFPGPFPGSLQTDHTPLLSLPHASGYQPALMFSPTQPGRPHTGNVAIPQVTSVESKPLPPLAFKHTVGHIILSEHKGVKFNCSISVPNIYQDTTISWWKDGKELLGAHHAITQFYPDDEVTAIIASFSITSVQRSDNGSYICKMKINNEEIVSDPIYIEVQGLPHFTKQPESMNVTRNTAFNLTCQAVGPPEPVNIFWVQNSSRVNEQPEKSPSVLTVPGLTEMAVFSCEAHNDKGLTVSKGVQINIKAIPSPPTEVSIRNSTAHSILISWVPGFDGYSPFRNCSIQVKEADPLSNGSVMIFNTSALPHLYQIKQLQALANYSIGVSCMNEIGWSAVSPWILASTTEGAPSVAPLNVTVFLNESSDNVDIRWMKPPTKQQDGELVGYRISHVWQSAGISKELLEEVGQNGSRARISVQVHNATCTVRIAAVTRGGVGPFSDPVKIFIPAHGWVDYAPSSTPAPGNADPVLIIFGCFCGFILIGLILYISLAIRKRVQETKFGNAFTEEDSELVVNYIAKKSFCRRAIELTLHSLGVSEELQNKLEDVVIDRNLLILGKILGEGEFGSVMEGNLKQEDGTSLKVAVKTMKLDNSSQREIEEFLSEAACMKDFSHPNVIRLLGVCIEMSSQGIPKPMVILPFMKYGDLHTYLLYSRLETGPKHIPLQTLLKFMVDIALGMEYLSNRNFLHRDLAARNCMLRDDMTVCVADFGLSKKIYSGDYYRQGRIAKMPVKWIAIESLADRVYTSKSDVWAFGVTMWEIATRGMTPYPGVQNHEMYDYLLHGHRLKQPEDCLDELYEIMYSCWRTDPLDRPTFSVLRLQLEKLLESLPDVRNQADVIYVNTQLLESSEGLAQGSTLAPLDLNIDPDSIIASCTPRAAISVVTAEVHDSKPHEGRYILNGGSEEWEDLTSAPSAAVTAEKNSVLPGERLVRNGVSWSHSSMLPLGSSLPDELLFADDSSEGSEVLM

T2: rhMer/Fc Chimera (recombinant human MERTK extracellular domain conjugated to an IgG Fc domain) (human, UniProt Q12866 21-505)
T2 construct: extracellular domain; also called hMER recombinant protein; Mer-Fc conjugate; not shown: IgG Fc domain
T2 sequence (looked up): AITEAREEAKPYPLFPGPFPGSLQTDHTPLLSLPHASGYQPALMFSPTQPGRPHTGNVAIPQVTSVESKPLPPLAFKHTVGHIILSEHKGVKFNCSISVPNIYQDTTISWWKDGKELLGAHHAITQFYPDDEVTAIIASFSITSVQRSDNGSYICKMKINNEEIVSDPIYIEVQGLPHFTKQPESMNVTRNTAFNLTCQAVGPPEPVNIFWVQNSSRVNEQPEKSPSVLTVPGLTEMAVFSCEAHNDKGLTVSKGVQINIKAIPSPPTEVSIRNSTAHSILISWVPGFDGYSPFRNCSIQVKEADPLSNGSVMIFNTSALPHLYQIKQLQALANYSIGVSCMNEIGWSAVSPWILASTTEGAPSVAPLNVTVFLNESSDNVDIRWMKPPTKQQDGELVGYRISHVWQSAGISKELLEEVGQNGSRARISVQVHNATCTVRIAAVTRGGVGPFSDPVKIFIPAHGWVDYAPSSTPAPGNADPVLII

B1: z11 antibody (antibody, human IgG1, kappa, V domains shown)
VH: QVQLVQSGAEVKKPGASVKVSCKASGYTFTNYGMNWVRQAPGQGLEWMGWINTYTGEPTYADDFKGRVTMTLDTSTSTAYMELRSLRSDDMAVYYCARKSTVVSRYFDVWGQGTTVTVSS
VL: DIQMTQSPSFLSASVGDRVTITCKASQDVGDAVTWYQQKPGKAPKLLIYWASTRHTGVPDRFSGSGSGTDFTLTISSLQPEDFATYYCQQYRSYPLTFGQGTKLEIKR
B2: z13 antibody (antibody, human IgG1, kappa, V domains shown)
VH: QVQLVQSGAEVKKPGASVKVSCKASGYTFTNYGMNWVRQAPGQGLEWMGWINTYTGEPTYADDFKGRVTFTLDTSTSTAYMELRSLRSDDMAVYYCARKSTVVSRYFDVWGQGTTVTVSS
VL: DIQMTQSPSFLSASVGDRVTITCKASQDVGDAVTWYQQKPGKAPKLLIYWASTRHTGVPDRFSGSGSGTDFTLTISSLQPEDFATYYCQQYRSYPLTFGQGTKLEIKR
B3: W3725-xAb-IgG1K/(S34+S35) (antibody, V domains shown)
VH: QIQLVQSGPELKKPGETVKISCKASGYTFTNYGMNWVKQAPGKGLKWMGWINTYTGEPTYADDFKGRFVFSLETSASTAYLQINNLKNEDMATYFCARKSTVVSRYFDVWGAGTTVTVSS
VL: DIVLTQSHKFMSTSVGDRVSITCKASQDVGDAVTWCQQKPGQPPKLLIYWASTRHTGVPDRFTGSGSGTDFTLTINNVQSEDLADYFCQQYRSYPLTFGAGTKLELKR
notes: also called chimeric anti-MERTK antibody

What was measured:
[1] = target: T1, human MERTK expressed on cells (SKMEL5 …); test: cell-based assay similar to that for z10 (flow cytometry on cells)
[2] = target: T2, rhMer/Fc Chimera (recombinant human …); test: SPR, avidity format: rhMer/Fc Chimera immobilised on CM5 chip, antibody as analyte, 1:1 fit
Description: With respect to avidity and affinity measurements using SPR, the protocols below were used.
The activator was prepared with a mixture of 400 mM EDC and 100 mM NHS immediately prior to injection. The CM5 sensor chip was activated for 420 s with the mixture. […] The chip was deactivated by 1 M ethanolamine-HCl. […] 8 concentrations (0.3125, 0.625, 1.25, 2.5, 5, 10, 20 and 40 nM) of the antibodies and running buffer were injected at a flow rate of 30 μL/min for an association phase of 240 s, followed by 4800 s dissociation. 10 mM glycine pH 1.5 as regeneration buffer was injected following every dissociation phase. The chip was regenerated with 10 mM glycine pH 1.5. One surface channel without capturing ligand was used as control surface for reference subtraction. Final data of each interaction was deducted from reference channel and buffer channel data. […] A molecular weight of 150 kDa was used to calculate the molar concentration of the antibodies.

[3] = target: T2, rhMer/Fc Chimera (recombinant human …); test: SPR, off-rate; ligand rhMer/Fc Chimera, antibody as analyte; below the detection limit of the instrument
[4] = target: T2, rhMer/Fc Chimera (recombinant human …); test: SPR, off-rate; ligand rhMer/Fc Chimera, antibody as analyte

Binder | EC50 [1] [nM] | Kd [2] [nM] | koff [3] [s⁻¹] | koff [4] [s⁻¹]
B1 | 7.9 | 0.00299 | < 1e-06 | –
B2 | 7.6 | 0.00368 | < 1e-06 | –
B3 | – | – | – | 7e-06
